Test results published in US20260008815A1, “CYCLIC PEPTIDE OR SALT THEREOF, AND USES THEREOF” (FUJIFILM Corporation, priority 2023, published 2026).
Bridge positions count the residues as written; N and C are the ends. Ends that are not written are not given here. COCH2 = acetyl group that carries the bridge

Experiments:
[1] = Molecular stability after alkali treatment, LC; assay type: physicochemical; details: 0.5 mol/L sodium hydroxide aqueous solution added, room temperature, 3 hours
Method: In addition, the stability of the cyclic peptide (SEQ ID NO: 450) containing a cysteine residue in the cyclized portion and the cyclic peptide (SEQ ID NO: 442) containing a homocysteine residue in the cyclized portion was compared under the following alkali treatment, which is a more severe condition.
The alkali treatment was performed by the following method. 25 μL of a 0.2 mg/ml cyclic peptide aqueous solution was prepared, 58.8 μL of a 0.5 mol/L sodium hydroxide aqueous solution was added to the aqueous solution, and the mixture was incubated at room temperature for 3 hours to obtain an aqueous solution of the cyclic peptide alkali-treated. The total area of all the peaks in LC/MS of the cyclic peptide before the alkali treatment was set to 100%, and the proportion of the total area of all the peaks in LC/MS of the aqueous solution of the cyclic peptide alkali-treated was determined to calculate the residual rate of the cyclic peptide.
The LC conditions used for the evaluation of molecular stability are the same as those in the measurement of the above-described cyclic peptide treated with a reducing agent.

[2] = tested on: BaF3 cells stably expressing FGFR (avian); assay: BaF3 cell proliferation-promoting effect; assay type: cell-based; details: number of viable cells at the addition concentration (0.001 to 10 nmol/L) giving the largest number; 2 nights; negative control about 100 cells/well
Method: (§1) The FGFR phosphorylation ability of the cyclic peptide complex was evaluated using the BaF3 cell proliferation-promoting effect in which FGFR was stably expressed.
(§2) BaF3 cells stably expressing FGFR were established by introducing a vector (human: Sino Biologicals, HG10824-UT, bovine: sequence of Accession No. F1MNW2 was introduced into pCDNA3.1/Hygro(+) Mammalian Expression Vector (Thermo, V87020), porcine: sequence of Accession No. A0A4X1SNN3 was introduced into pCDNA3.1/Hygro(+) Mammalian Expression Vector (Thermo, V87020), and avian: sequence of Accession No. A0A8V0XB17 was introduced into pCDNA3.1/Hygro(+) Mammalian Expression Vector (Thermo, V87020)) into which FGFR gene had been incorporated, into BaF3 cells using NucleoFector (Lonza) and performing drug selection of cells into which the FGFR gene had been introduced using hygromycin.
(§3) The evaluation of the proliferation-promoting effect of BaF3 cells in which FGFR is stably expressed was performed by the following method. First, RPMI-1640 with L-Glutamine and Phenol Red (FUJIFILM Wako Pure Chemical Corporation, 189-02025) and Fetal Bovine Serum (Thermo, 10270-106) were mixed at a volume ratio of 9:1, and then heparin (STEM CELL, 07980) was added thereto such that the final concentration thereof was 8 μg/mL, thereby preparing a culture medium for evaluation (hereinafter, described as RPMI (10% FBS) medium). Next, the BaF3 cells in which FGFR had been stably expressed were washed twice with RPMI (10% FBS) culture medium, suspended in RPMI (10% FBS) culture medium in which the cyclic peptide complex had been dissolved to a final concentration of 0.001 to 10 nmol/L, and seeded in a 384-well plate. In this case, a condition in which the cyclic peptide complex was not added as a negative control was prepared. After culturing at 37° C. (5% CO2) for 2 nights, Hoechst 33342, Trihydrochloride, Trihydrate-10 mg/mL Solution in Water (Thermo, H3570), -Cellstain (registered trademark)-Calcein-AM solution (1 mg/mL DMSO solution) (DOJINDO, C396), and -Cellstain (registered trademark)-PI solution (DOJINDO, P378) were each added to RPMI (10% FBS) culture medium in a volume amount of 1/1,000 at the final concentration, and live/dead staining of the cells were performed by allowing to stand at room temperature for 1 hour, and imaging was performed using a confocal microscope (Yokogawa Electric Corporation, CQ1). The number of viable cells was calculated from the imaging data, and the cell proliferation-promoting effect was evaluated according to the following evaluation criteria. The number of viable cells in the negative control was about 100 cells/well. The evaluation result preferably satisfies the evaluation criteria A, B, or C.
(§4) At an addition concentration of the cyclic peptide complex having the largest number of viable cells, evaluation criteria is as follows.

[3] = tested on: BaF3 cells stably expressing FGFR (bovine); assay: BaF3 cell proliferation-promoting effect; assay type: cell-based; details: number of viable cells at the addition concentration (0.001 to 10 nmol/L) giving the largest number; 2 nights; negative control about 100 cells/well
Method: as §1, §2, §3, §4

[4] = tested on: BaF3 cells stably expressing FGFR (human); assay: BaF3 cell proliferation-promoting effect; assay type: cell-based; details: number of viable cells at the addition concentration (0.001 to 10 nmol/L) giving the largest number; 2 nights; negative control about 100 cells/well
Method: as §1, §2, §3, §4

[5] = tested on: BaF3 cells stably expressing FGFR (porcine); assay: BaF3 cell proliferation-promoting effect; assay type: cell-based; details: number of viable cells at the addition concentration (0.001 to 10 nmol/L) giving the largest number; 2 nights; negative control about 100 cells/well
Method: as §1, §2, §3, §4

[6] = target: T1, Recombinant Human FGFR2 alpha (IIIc) Fc Chimera Protein, CF (R&D systems, 712-FR-050) (human, UniProt P21802 22-377); assay: SPR, 10 nmol/L peptide over immobilized FGFR2-Fc
T1 construct: bought; not shown: Fc part of the chimera
Method: A CM5 sensor chip (Cytiva, 29149603) was set in Biacore-T200 (manufactured by Cytiva) which is a surface plasmon resonance device, and an HBS-EP buffer (Cytiva, BR100826) was added as a running buffer at a flow rate of 10 μL/min to equilibrate the flow channel. Next, 70 μL of a mixed aqueous solution of 0.2 mol/L 1-(3-dimethylaminopropyl)-3-ethylcarbodiimide (EDC) and 0.05 mol/L N-hydroxysuccinimide (NHS) was added to activate the sensor chip. Then, Recombinant Human FGFR2 alpha (IIIc) Fc Chimera Protein CF (R&D systems, 712-FR-050) prepared at 50 nmol/L in an Acetate 4.5 buffer (Cytiva, BR100350) was added thereto to perform immobilization at about 5000 RU. Thereafter, the blocking treatment was performed with an ethanolamine solution. In addition, in another flow channel of the same sensor chip, blocking treatment was performed immediately after activation without immobilizing FGFR.
A cyclic peptide diluted to 10 nmol/L using HBS-EP was added to each flow channel of the FGFR-immobilized sensor chip produced above at 25° C. for 10 minutes, then HBS-EP was allowed to flow as a running buffer for 30 minutes, and the binding of the cyclic peptide to FGFR was measured. Thereafter, a regeneration treatment of removing the bound cyclic peptide was performed by repeating the flow of a regeneration liquid in which sodium chloride powder was dissolved in Glysine 1.5 (Cytiva, BR100354) to a final concentration of 0.15 mol/L for 1 minute in each flow channel twice. The binding amount of the cyclic peptide was evaluated from the difference between the measured value of Biacore-T200 in the flow channel in which FGFR was immobilized and the measured value of Biacore-T200 in the flow channel in which FGFR was not immobilated, in a case where a 10 nmol/L cyclic peptide was allowed to flow.

[7] = target: T2, FGFR1 Protein, Human, Recombinant (His Tag) (Sino Biological, 10616-H08H) (human, UniProt P11362 22-376); assay: SPR, 1 umol/L FGFR over immobilized peptide
T2 construct: bought; not shown: His tag
T2 sequence (looked up): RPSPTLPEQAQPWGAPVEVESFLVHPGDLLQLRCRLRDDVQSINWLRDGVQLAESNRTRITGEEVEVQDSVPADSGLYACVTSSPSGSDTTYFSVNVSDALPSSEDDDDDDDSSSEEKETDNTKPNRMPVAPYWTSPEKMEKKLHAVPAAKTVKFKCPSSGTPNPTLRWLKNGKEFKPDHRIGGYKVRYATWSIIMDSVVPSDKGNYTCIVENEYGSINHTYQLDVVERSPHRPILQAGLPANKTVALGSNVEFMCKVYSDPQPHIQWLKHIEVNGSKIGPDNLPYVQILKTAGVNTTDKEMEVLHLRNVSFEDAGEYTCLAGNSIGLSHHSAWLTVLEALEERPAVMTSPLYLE
Method: (§5) Next, 70 μL of a mixed aqueous solution of 0.2 mol/L 1-(3-dimethylaminopropyl)-3-ethylcarbodiimide (EDC) and 0.05 mol/L N-hydroxysuccinimide (NHS) was added to activate the sensor chip. Then, a cyclic peptide prepared to 2 mg/mL in HBS-EP buffer was added thereto to perform immobilization at about 200 RU. Thereafter, the blocking treatment was performed with an ethanolamine solution. In addition, in another flow channel of the same sensor chip, blocking treatment was performed immediately after activation without immobilizing FGFR.
(§6) After various FGFRs (FGFR1 Protein, Human, Recombinant (His Tag) (Sino Biological, 10616-H08H), FGFR2 Protein, Human, Recombinant (His Tag) (Sino Biological, 10824-H08H), FGFR3 Protein, Human, Recombinant (ECD, His Tag) (Sino Biological, 16044-H08H), FGFR4 Protein, Human, Recombinant (His Tag) (Sino Biological, 10538-H08H)) diluted with HBS-EP to 1 μmol/L at 25° C. was added to each flow channel of the cyclic peptide-immobilized sensor chip prepared above, for 10 minutes, HBS-EP was allowed to flow as a running buffer for 30 minutes, and the binding of various FGFRs to the cyclic peptide was measured. Thereafter, a regeneration treatment of removing the bound FGFR was performed by repeating the flow of a regeneration liquid in which sodium chloride (final concentration: 0.4 mol/L) and a sodium dodecyl sulfate aqueous solution (mixed concentration: 1%, final concentration: 0.2%) were dissolved in Glysine 1.5 (Cytiva, BR100354) for 1 minute in each flow channel twice. The binding amount of the cyclic peptide was evaluated from the difference between the measured value of Biacore-T200 in the flow channel in which the cyclic peptide was immobilized and the measured value of Biacore-T200 in the flow channel in which the cyclic peptide was not immobilized, in a case where 1 μmol/L FGFR was allowed to flow.
(§7) The binding amount of FGFR evaluated above was normalized to the binding amount of FGFR molecules per one molecule of the cyclic peptide using the molecular weights of the cyclic peptide and FGFR, and the binding affinity to FGFR was evaluated according to the following evaluation criteria. The evaluation result preferably satisfies the evaluation criteria A, B, or C.

[8] = target: T3, FGFR2 Protein, Human, Recombinant (His Tag) (Sino Biological, 10824-H08H) (human, UniProt P21802 22-377); assay: SPR, 1 umol/L FGFR over immobilized peptide
T3 construct: bought; not shown: His tag
Method: as §5, §6, §7

[9] = target: T4, FGFR4 Protein, Human, Recombinant (His Tag) (Sino Biological, 10538-H08H) (human, UniProt P22455 22-369); assay: SPR, 1 umol/L FGFR over immobilized peptide
T4 construct: bought; not shown: His tag
T4 sequence (looked up): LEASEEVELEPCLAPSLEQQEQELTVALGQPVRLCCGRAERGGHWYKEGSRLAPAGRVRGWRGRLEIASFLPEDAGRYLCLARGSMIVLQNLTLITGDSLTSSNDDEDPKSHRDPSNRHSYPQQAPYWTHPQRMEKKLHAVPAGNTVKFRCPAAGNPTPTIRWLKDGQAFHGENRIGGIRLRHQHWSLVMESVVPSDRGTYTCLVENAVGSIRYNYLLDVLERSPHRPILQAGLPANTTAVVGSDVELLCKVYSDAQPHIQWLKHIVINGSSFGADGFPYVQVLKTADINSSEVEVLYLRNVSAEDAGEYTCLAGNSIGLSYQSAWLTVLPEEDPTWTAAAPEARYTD
Method: as §5, §6, §7

[10] = target: T5, FGFR3 Protein, Human, Recombinant (ECD, His Tag) (Sino Biological, 16044-H08H) (human, UniProt P22607 23-375); assay: SPR, 1 umol/L FGFR over immobilized peptide
T5 construct: extracellular domain; bought; not shown: His tag
T5 sequence (looked up): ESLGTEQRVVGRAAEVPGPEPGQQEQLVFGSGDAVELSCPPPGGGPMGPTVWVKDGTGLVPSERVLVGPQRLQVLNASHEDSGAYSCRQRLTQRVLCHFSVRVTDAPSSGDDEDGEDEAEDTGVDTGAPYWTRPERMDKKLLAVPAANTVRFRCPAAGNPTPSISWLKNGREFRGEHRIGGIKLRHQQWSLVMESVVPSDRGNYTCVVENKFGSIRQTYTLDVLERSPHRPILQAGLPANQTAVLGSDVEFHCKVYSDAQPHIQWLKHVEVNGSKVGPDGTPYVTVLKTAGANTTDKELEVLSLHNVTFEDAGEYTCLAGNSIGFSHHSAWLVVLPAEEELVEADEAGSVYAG
Method: as §5, §6, §7

T3 sequence (P21802 22-377 limits assumed): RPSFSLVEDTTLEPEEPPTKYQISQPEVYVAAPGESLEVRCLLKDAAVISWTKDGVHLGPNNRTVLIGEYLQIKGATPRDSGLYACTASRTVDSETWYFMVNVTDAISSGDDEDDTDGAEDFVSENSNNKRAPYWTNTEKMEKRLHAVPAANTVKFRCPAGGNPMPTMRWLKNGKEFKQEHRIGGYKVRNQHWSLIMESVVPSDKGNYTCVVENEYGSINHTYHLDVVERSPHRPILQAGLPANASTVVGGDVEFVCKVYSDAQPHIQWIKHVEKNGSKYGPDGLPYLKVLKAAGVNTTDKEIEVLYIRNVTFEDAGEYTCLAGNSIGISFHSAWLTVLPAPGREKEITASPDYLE
T1 sequence (P21802 22-377, change not shown): as the sequence (P21802 22-377 limits assumed) above

Molecule: Y-(C)-EENYLDPEQYQYFIYF-(K(acetyl))-YKKK (YCEENYLDPEQYQYFIYFK(COCH2)YKKK; thioether 2-19) [SEQ ID NO: 450]
- residual rate of the cyclic peptide [1]: 36%

Molecule: Y-(Hcy)-EENYLDPEQYQYFIYF-(K(acetyl))-YKKK (YXEENYLDPEQYQYFIYFKYKKK; homocysteine, acetyl-lysine; Description of Artificial Sequence: Cyclic peptide) [SEQ ID NO: 442]
- residual rate of the cyclic peptide [1]: 61%

Molecule: 456 (QCPQNFINPVQWRYFQHYKNKQCPQNFINPVQWRYFQHYKNK; also: cyclic peptide) [compound 456]
- Evaluation result of cell proliferative properties Avian [2]: A (The number of viable cells is 1,000 cells/well or more.)
- Evaluation result of cell proliferative properties Bovine [3]: A (The number of viable cells is 1,000 cells/well or more.)
- Evaluation result of cell proliferative properties Human [4]: A (The number of viable cells is 1,000 cells/well or more.)
- Evaluation result of cell proliferative properties Porcine [5]: A (The number of viable cells is 1,000 cells/well or more.)

Molecule: YCEENYLDPEQYQYFIYFK(COCH2)YKKK (thioether 2-19, chemically synthesized) [cyclic peptide SEQ ID NO: 450]
- binding amount (SPR, cyclic peptide molecules bound per FGFR molecule at 10 nmol/L peptide) [6]: ≥ 0.7 moleculesofthecyclicpeptide/onemoleculeoffgfr
- binding amount (SPR, FGFR molecules bound per cyclic peptide molecule) [7]: 0.01 to 0.05 moleculesoffgfr/onemoleculeofthecyclicpeptide
- binding amount (SPR, FGFR molecules bound per cyclic peptide molecule) [8]: ≥ 0.05 moleculesoffgfr/onemoleculeofthecyclicpeptide
- binding amount (SPR, FGFR molecules bound per cyclic peptide molecule) [9]: 0.01 to 0.05 moleculesoffgfr/onemoleculeofthecyclicpeptide
- binding amount (SPR, FGFR molecules bound per cyclic peptide molecule) [10]: 0.01 to 0.05 moleculesoffgfr/onemoleculeofthecyclicpeptide
